Reference: the supplement of paper PMC6755084

B1: F1*; the commonest letter at each place (parent)
chain: GAGACCGCAACTGAAAAGTTGTTATCACTTGTCGTAAGACACTTTGGATGGGTTGAAGTTCTGCACGTAGAAGCAAAAGGC
B2: F1*; a variant is named by its letters at N, in order (parent)
chain: GAGACCGCAACTGAAAAGTTGTTATCNNNNNNNNAANNNNNTTNGNNGGGTTGAAGTTCTGCACGTAGAAGCAAAAGGC
B3: F1*; a variant is named by its letters at N, in order (parent)
chain: GAGACCGCAACTGAAAAGTTGTTATCACTTGTCGNANNNNNNTTNGNNNGGNTNNNGTTCTGCACGTAGAAGCAAAAGGC

Variants of: B1
Assay: fraction ligated after 30 min (ligated reads / total reads); higher = more ligase activity
Details: with F1*sub RNA substrate (template-directed ligation), 42 °C
Protocol: (§1)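 Chip-synthesised pool of F1* ligase ribozyme variants (all single and double substitutions, single, double and triple deletions in the catalytic core and GAA bulge, plus designed variants) was transcribed with T7 and reacted as a pool with excess substrate F1*sub for 30 min at 42 C in 50 mM EPPS pH 8.5, 25 mM MgCl2. Ligated and unligated bands were separated by PAGE, barcoded by RT and deep sequenced; fraction ligated = ligated reads / total reads per variant, relative activity = FL / FL of wild type (0.826). Sequences are the DNA template of the ribozyme.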

Variant	fraction ligated
T23A T49G	0.827
T23A T49C	0.731
T23A T49A	0.791
T23A G34C	0.813
T23A G34A	0.814
T23A G34T	0.812
T23G C42T	0.838
T23G C42G	0.829
T23G C42A	0.835
T23G T25C	0.781
T23G T25A	0.78
T23G T25G	0.738
T23A T25C	0.762
T23A T25A	0.652
T23A T25G	0.737
T23C T45C	0.208
T23C T45G	0.027
T23C T45A	0.266
T23G A56C	0.794
T23G A56T	0.772
T23G A56G	0.792
T23A C42T	0.817
T23A C42A	0.817

Variant	fraction ligated
T23A C42G	0.822
T23A A41T	0.807
T23A A41G	0.765
T23A A41C	0.757
T23A C28G	0.804
T23A C28A	0.787
T23A C28T	0.753
T23C A36G	0.817
T23C A36T	0.823
T23C A36C	0.828
T23C C28G	0.732
T23C C28T	0.777
T23C C28A	0.73
T23A A57C	0.805
T23A A57T	0.813
T23A A57G	0.818
T23G T45A	0.795
T23G T45C	0.781
T23G T45G	0.523
T23G G38A	0.803
T23G G38C	0.808
T23G G38T	0.81
T23A G46C	0.731

Variant	fraction ligated
T23A G46T	0.479
T23A G46A	0.749
T23A A56C	0.653
T23A A56G	0.686
T23A A56T	0.754
T23A A36C	0.826
T23A A36G	0.847
T23A A36T	0.838
T23C T35G	0.83
T23C T35A	0.845
T23C T35C	0.818
T23G A24T	0.794
T23G A24G	0.091
T23G A24C	0.773
T23G C28A	0.789
T23G C28T	0.782
T23G C28G	0.791
T23G A24C A27G C28A C42G G47A	0.812
T23C G31T	0.787
T23C G31A	0.619
T23C G31C	0.666
T23G G50T	0.728
T23G G50C	0.401

Variant	fraction ligated
T23G G50A	0.633
T23C T49A	0.792
T23C T49C	0.715
T23C T49G	0.78
T23C T32C	0.788
T23C T32G	0.827
T23C T32A	0.821
T23C T43C	0.759
T23C T43G	0.745
T23C T43A	0.815
T23A T44C	0.784
T23A T44A	0.819
T23A T44G	0.801
T23G C26G	0.74
T23G C26A	0.789
T23G C26T	0.82
T23G G47T	0.346
T23G G47A	0.79
T23G G47C	0.0263
T23A T30A	0.797
T23A T30G	0.803
T23A T30C	0.793
T23G T29A	0.824

Variant	fraction ligated
T23G T29G	0.797
T23G T29C	0.784
A24C A37G	0.626
A24C A37C	0.716
A24C A37T	0.754
T23G G55T	0.826
T23G G55A	0.832
T23G G55C	0.809
T23C G34A	0.819
T23C G34T	0.804
T23C G34C	0.774
T23A G31A	0.816
T23A G31T	0.789
T23A G31C	0.779
T23C G55T	0.786
T23C G55A	0.783
T23C G55C	0.469
T23C G46A	0.8
T23C G46C	0.738
T23C G46T	0.614
T23G C33G	0.848
T23G C33A	0.866
T23G C33T	0.893

Variant	fraction ligated
T23G A57T	0.812
T23G A57C	0.779
T23G A57G	0.819
T23G T30G	0.8
T23G T30C	0.765
T23G T30A	0.808
T23C T25G	0.672
T23C T25C	0.782
T23C T25A	0.582
T23C C26A	0.371
T23C C26T	0.779
T23C C26G	0.136
T23C T30A	0.802
T23C T30G	0.833
T23C T30C	0.789
T23A T35G	0.817
T23A T35C	0.811
T23A T35A	0.827
T23A G47C	0.0295
T23A G47T	0.09
T23A G47A	0.783

Variants of: B2
Assay: as above
Details: with F1*sub RNA substrate (template-directed ligation), 42 °C
Protocol: as §1

Variant	fraction ligated
ACTTGTCGGAACTGAT	0.813
ATTGTCGTGACATGAT	0.811
ACTTGTCTGACATGAT	0.834

Variants of: B3
Assay: as above
Details: with F1*sub RNA substrate (template-directed ligation), 42 °C
Protocol: as §1

Variant	fraction ligated
TAGACACTGATGTTT	0.0147
TAGACACTGATGTTG	0.0257
TAGACACTGATGTTA	0.834
TAGACACTGATGTTC	0.0084
TAGACACTGAGTGAA	0.168
TAGACCTGATGTGAA	0.839
TAGACACTGATTGAA	0.703
TAGACACGATGTGAA	0.799
TAGACATGATGTGAA	0.829
TAGAACTGATGTGAA	0.821
TAGACACTGATGTCA	0.792
TAGACACTGATGTCT	0.0184
TAGACACTGATGTCC	0.0263
TAGACACTGATGTCG	0.0205
TAGACACTGATGTAG	0.773
TAGACACTGATGTAC	0.56
TAGACACTGATGTAT	0.762
TAGACACTGATGTAA	0.834
TGACACTGATGTGAA	0.849
TAGACACTGATGTGA	0.848
TAGACACTGATGTGG	0.352
TAGACACTGATGTGT	0.349
TAGACACTGATGTGC	0.802
TAACACTGATGTGAA	0.832
TAGACACTATGTGAA	0.782
TAGCACTGATGTGAA	0.827
TAGACACTGTGTGAA	0.354
AGACACTGATGTGAA	0.843
